Data as given in patent US20030143735A1 (University of Pennsylvania, published 2003).

Target: T1, HIV-1 p55gag precursor polyprotein (HIV-1, UniProt P04591 1-500)
T1 construct: In vitro translated control protein
Assay: coimmunoprecipitation of 35S-labeled in vitro translated proteins, SDS-PAGE

B1: human Vpr Interacting Protein (hVIP), 35S-labeled, in vitro translated (other)
chain: MHARAAASVMDICRIRLDHAVSMSTFFFFLSSGMEVDAAVVPSVMACGVTGSVSVALHPLVILNISDHWIRMRSHQGRPVQVIGALIGKQEGRNIEVMNSFELLSHTVEEKIIIDKEYYYTKEEQFKQVFKELEFLGWYTTGGPPDPSDIHVHKQCCEIIESPLFLKLNPMTKHTDLPVSVFESVIDIINGEATMLFAELTYTLATEEAERIGVDHVARMTATGSGENSTVAEHLIAQHSAIKMLHSRVKLILEYVKASEAGEVPFNHEILREAYALCHCLPVLSTDKFKTDFYDQCNDVGLMAYLGTITKTCNTMNQFVNKFNVLYDRQGIGRRMRGLFF
modifications: 35S radiolabel
notes: In vitro translated hVIP of the coimmunoprecipitation assay; Anti-Express antibody was among the antibodies used, so it may have
B1: no binding.
